From patent US20230270823A1 (WUXI BIOLOGICS IRELAND, published 2023)

T1: IL-15Rβ/γ chain (IL-2Rβ and common gamma chain) on human CD8+ T cells and NK cells (human, UniProt P14784 27-551; P31785 23-369)
T1 sequence (looked up) 1: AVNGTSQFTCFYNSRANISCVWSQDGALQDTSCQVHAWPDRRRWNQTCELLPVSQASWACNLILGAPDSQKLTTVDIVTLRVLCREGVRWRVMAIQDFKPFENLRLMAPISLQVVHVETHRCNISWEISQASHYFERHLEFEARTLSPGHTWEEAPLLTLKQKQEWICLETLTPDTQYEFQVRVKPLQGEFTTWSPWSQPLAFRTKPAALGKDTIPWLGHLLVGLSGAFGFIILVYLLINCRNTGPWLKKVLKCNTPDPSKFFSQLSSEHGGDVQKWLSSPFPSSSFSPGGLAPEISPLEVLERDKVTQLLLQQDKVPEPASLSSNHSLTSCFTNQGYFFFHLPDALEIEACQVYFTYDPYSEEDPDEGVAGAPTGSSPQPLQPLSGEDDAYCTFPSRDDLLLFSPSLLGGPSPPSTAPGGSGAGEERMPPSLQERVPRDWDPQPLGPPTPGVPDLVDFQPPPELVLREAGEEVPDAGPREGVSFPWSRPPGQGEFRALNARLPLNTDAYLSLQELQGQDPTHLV
T1 sequence (looked up) 2: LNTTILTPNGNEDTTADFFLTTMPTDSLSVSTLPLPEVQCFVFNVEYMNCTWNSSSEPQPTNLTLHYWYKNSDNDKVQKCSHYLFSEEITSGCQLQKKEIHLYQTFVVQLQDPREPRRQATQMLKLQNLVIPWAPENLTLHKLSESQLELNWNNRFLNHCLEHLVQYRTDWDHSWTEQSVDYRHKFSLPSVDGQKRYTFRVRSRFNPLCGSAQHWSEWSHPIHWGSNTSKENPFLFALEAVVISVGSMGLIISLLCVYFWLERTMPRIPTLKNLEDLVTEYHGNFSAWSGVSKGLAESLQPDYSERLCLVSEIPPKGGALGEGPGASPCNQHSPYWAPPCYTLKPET


How the values were obtained:
[1] = target: IL-15Rβ/γ chain (IL-2Rβ and common gamma chain) on cyno CD8+ T cells and NK cells (cynomolgus monkey); test: cell-based or functional assay
[2] = target: T1, IL-15Rβ/γ chain (IL-2Rβ and common …); test: cell-based or functional assay

Row | Binder | EC50, % Ki67 expression, cyno donor 1 CD8+ T cells [1] | EC50, % Ki67 expression, cyno donor 1 NK cells [1] | Fold reduced (EC50, % Ki67), cyno donor 1 CD8+ T cells [1] | Fold reduced (EC50, % Ki67), cyno donor 1 NK cells [1] | EC50, % Ki67 expression, human CD8+ T cells [2] | EC50, % Ki67 expression, human NK cells [2] | Fold reduced (EC50, % Ki67), human CD8+ T cells [2] | Fold reduced (EC50, % Ki67), human NK cells [2] | EC50, % Ki67 expression, cyno donor 2 CD8+ T cells [1] | EC50, % Ki67 expression, cyno donor 2 NK cells [1] | Fold reduced (EC50, % Ki67), cyno donor 2 CD8+ T cells [1] | Fold reduced (EC50, % Ki67), cyno donor 2 NK cells [1]
1 | W327151-TXU1.P1-V0001.uIgG1v805 (Fc fusion) chain 1: NWVNVISADLKKIEDLIQSMHIDATLYTESDVHPSCKVTAMKCFLLELQVISLESGDASIHDTVENLIILANNSLSSNGNVTESGCKECEELEEKNIKEFLQSFVHIVQMFINTSGGGGSEPKSSDKTHTCPPCPAPELLRGPSVFLFPPKPKDTLYITREPEVTCVVVDVSHEDPEVKFNWYVDGVEVHNAKTKPREEQYNSTYRVVSVLTVLHQDWLNGKEYKCKVSNKARPAPIEKTISKAKGQPREPQVYTLPPCREEMTKNQVSLWCLVKGFYPSDIAVEWESNGQPENNYKTTPPVLDSDGSFFLYSKLTVDKSRWQQGNVFSCSVMHEALHNHYTQKSLSLSPG chain 2: ITCPPPMSVEHADIWVKSYSLYSRERYICNSGFKRKAGTSSLTECVLNKATNVAHWTTPSLKCIRGGGGSEPKSSDKTHTCPPCPAPELLRGPSVFLFPPKPKDTLYITREPEVTCVVVDVSHEDPEVKFNWYVDGVEVHNAKTKPREEQYNSTYRVVSVLTVLHQDWLNGKEYKCKVSNKARPAPIEKTISKAKGQPREPQVCTLPPSREEMTKNQVSLSCAVKGFYPSDIAVEWESNGQPENNYKTTPPVLDSDGSFFLVSKLTVDKSRWQQGNVFSCSVMHEALHNHYTQKSLSLSPG | 29.2 nM | 65.6 nM | 325 fold | 729 fold | 338 nM | 29.2 nM | 1840 fold | 1390 fold | – | – | – | –
2 | W327151-TXU1.P1-V0002.uIgG1v805 (Fc fusion) chain 1: NWVNVISDALKKIEDLIQSMHIDATLYTESDVHPSCKVTAMKCFLLELQVISLESGDASIHDTVENLIILANNSLSSNGNVTESGCKECEELEEKNIKEFLQSFVHIVQMFINTSGGGGSEPKSSDKTHTCPPCPAPELLRGPSVFLFPPKPKDTLYITREPEVTCVVVDVSHEDPEVKFNWYVDGVEVHNAKTKPREEQYNSTYRVVSVLTVLHQDWLNGKEYKCKVSNKARPAPIEKTISKAKGQPREPQVYTLPPCREEMTKNQVSLWCLVKGFYPSDIAVEWESNGQPENNYKTTPPVLDSDGSFFLYSKLTVDKSRWQQGNVFSCSVMHEALHNHYTQKSLSLSPG chain 2: ITCPPPMSVEHADIWVKSYSLYSRERYICNSGFKRKAGTSSLTECVLNKATNVAHWTTPSLKCIRGGGGSEPKSSDKTHTCPPCPAPELLRGPSVFLFPPKPKDTLYITREPEVTCVVVDVSHEDPEVKFNWYVDGVEVHNAKTKPREEQYNSTYRVVSVLTVLHQDWLNGKEYKCKVSNKARPAPIEKTISKAKGQPREPQVCTLPPSREEMTKNQVSLSCAVKGFYPSDIAVEWESNGQPENNYKTTPPVLDSDGSFFLVSKLTVDKSRWQQGNVFSCSVMHEALHNHYTQKSLSLSPG | – | – | – | – | 174 nM | 19.1 nM | 947 fold | 911 fold | – | – | – | –

Further lines, results first:

Row | EC50, % Ki67 expression, cyno donor 1 CD8+ T cells [1] | EC50, % Ki67 expression, cyno donor 1 NK cells [1] | Fold reduced (EC50, % Ki67), cyno donor 1 CD8+ T cells [1] | Fold reduced (EC50, % Ki67), cyno donor 1 NK cells [1] | EC50, % Ki67 expression, human CD8+ T cells [2] | EC50, % Ki67 expression, human NK cells [2] | Fold reduced (EC50, % Ki67), human CD8+ T cells [2] | Fold reduced (EC50, % Ki67), human NK cells [2] | EC50, % Ki67 expression, cyno donor 2 CD8+ T cells [1] | EC50, % Ki67 expression, cyno donor 2 NK cells [1] | Fold reduced (EC50, % Ki67), cyno donor 2 CD8+ T cells [1] | Fold reduced (EC50, % Ki67), cyno donor 2 NK cells [1] | Binder
3 | 3.37 nM | 10.3 nM | 37 fold | 115 fold | 22.5 nM | 6.72 nM | 122 fold | 320 fold | – | – | – | – | W327151-TXU1.P1-V0004.uIgG1v805 (Fc fusion) chain 1: NWVNVISDLKAKIEDLIQSMHIDATLYTESDVHPSCKVTAMKCFLLELQVISLESGDASIHDTVENLIILANNSLSSNGNVTESGCKECEELEEKNIKEFLQSFVHIVQMFINTSGGGGSEPKSSDKTHTCPPCPAPELLRGPSVFLFPPKPKDTLYITREPEVTCVVVDVSHEDPEVKFNWYVDGVEVHNAKTKPREEQYNSTYRVVSVLTVLHQDWLNGKEYKCKVSNKARPAPIEKTISKAKGQPREPQVYTLPPCREEMTKNQVSLWCLVKGFYPSDIAVEWESNGQPENNYKTTPPVLDSDGSFFLYSKLTVDKSRWQQGNVFSCSVMHEALHNHYTQKSLSLSPG chain 2: ITCPPPMSVEHADIWVKSYSLYSRERYICNSGFKRKAGTSSLTECVLNKATNVAHWTTPSLKCIRGGGGSEPKSSDKTHTCPPCPAPELLRGPSVFLFPPKPKDTLYITREPEVTCVVVDVSHEDPEVKFNWYVDGVEVHNAKTKPREEQYNSTYRVVSVLTVLHQDWLNGKEYKCKVSNKARPAPIEKTISKAKGQPREPQVCTLPPSREEMTKNQVSLSCAVKGFYPSDIAVEWESNGQPENNYKTTPPVLDSDGSFFLVSKLTVDKSRWQQGNVFSCSVMHEALHNHYTQKSLSLSPG
4 | – | – | – | – | 13.5 nM | 1.58 nM | 73.5 fold | 75.1 fold | 2.59 nM | 1.04 nM | 153 fold | 130 fold | W327151-TXU1.P1-V0006.uIgG1v805 (Fc fusion) chain 1: NWVNVISDLKKIEDLIQSMHIDATLYTESDVHPSCKVTAMKCFLLELQVISLESGDASIHDTVENALIILANNSLSSNGNVTESGCKECEELEEKNIKEFLQSFVHIVQMFINTSGGGGSEPKSSDKTHTCPPCPAPELLRGPSVFLFPPKPKDTLYITREPEVTCVVVDVSHEDPEVKFNWYVDGVEVHNAKTKPREEQYNSTYRVVSVLTVLHQDWLNGKEYKCKVSNKARPAPIEKTISKAKGQPREPQVYTLPPCREEMTKNQVSLWCLVKGFYPSDIAVEWESNGQPENNYKTTPPVLDSDGSFFLYSKLTVDKSRWQQGNVFSCSVMHEALHNHYTQKSLSLSPG chain 2: ITCPPPMSVEHADIWVKSYSLYSRERYICNSGFKRKAGTSSLTECVLNKATNVAHWTTPSLKCIRGGGGSEPKSSDKTHTCPPCPAPELLRGPSVFLFPPKPKDTLYITREPEVTCVVVDVSHEDPEVKFNWYVDGVEVHNAKTKPREEQYNSTYRVVSVLTVLHQDWLNGKEYKCKVSNKARPAPIEKTISKAKGQPREPQVCTLPPSREEMTKNQVSLSCAVKGFYPSDIAVEWESNGQPENNYKTTPPVLDSDGSFFLVSKLTVDKSRWQQGNVFSCSVMHEALHNHYTQKSLSLSPG
5 | – | – | – | – | 352 nM | 106 nM | 1910 fold | 5030 fold | 100 nM | 26.3 nM | 5890 fold | 3290 fold | W327151-TXU1.P1-V0005.uIgG1v805 (Fc fusion) chain 1: NWVNVISDLKKIEDLIQSMHIDATLYTESDVHPSCKVTAMKCFLLELQVISLESGDASIHDTVEANLIILANNSLSSNGNVTESGCKECEELEEKNIKEFLQSFVHIVQMFINTSGGGGSEPKSSDKTHTCPPCPAPELLRGPSVFLFPPKPKDTLYITREPEVTCVVVDVSHEDPEVKFNWYVDGVEVHNAKTKPREEQYNSTYRVVSVLTVLHQDWLNGKEYKCKVSNKARPAPIEKTISKAKGQPREPQVYTLPPCREEMTKNQVSLWCLVKGFYPSDIAVEWESNGQPENNYKTTPPVLDSDGSFFLYSKLTVDKSRWQQGNVFSCSVMHEALHNHYTQKSLSLSPG chain 2: ITCPPPMSVEHADIWVKSYSLYSRERYICNSGFKRKAGTSSLTECVLNKATNVAHWTTPSLKCIRGGGGSEPKSSDKTHTCPPCPAPELLRGPSVFLFPPKPKDTLYITREPEVTCVVVDVSHEDPEVKFNWYVDGVEVHNAKTKPREEQYNSTYRVVSVLTVLHQDWLNGKEYKCKVSNKARPAPIEKTISKAKGQPREPQVCTLPPSREEMTKNQVSLSCAVKGFYPSDIAVEWESNGQPENNYKTTPPVLDSDGSFFLVSKLTVDKSRWQQGNVFSCSVMHEALHNHYTQKSLSLSPG
